Assay results from patent US20240182563A1 (GENOME, published 2024).

T1: human CNTN4-rabbit Fc (human; rabbit, UniProt Q8IWV2 19-1000, limits assumed)
T1 construct: not shown: rabbit Fc
T1 sequence (looked up): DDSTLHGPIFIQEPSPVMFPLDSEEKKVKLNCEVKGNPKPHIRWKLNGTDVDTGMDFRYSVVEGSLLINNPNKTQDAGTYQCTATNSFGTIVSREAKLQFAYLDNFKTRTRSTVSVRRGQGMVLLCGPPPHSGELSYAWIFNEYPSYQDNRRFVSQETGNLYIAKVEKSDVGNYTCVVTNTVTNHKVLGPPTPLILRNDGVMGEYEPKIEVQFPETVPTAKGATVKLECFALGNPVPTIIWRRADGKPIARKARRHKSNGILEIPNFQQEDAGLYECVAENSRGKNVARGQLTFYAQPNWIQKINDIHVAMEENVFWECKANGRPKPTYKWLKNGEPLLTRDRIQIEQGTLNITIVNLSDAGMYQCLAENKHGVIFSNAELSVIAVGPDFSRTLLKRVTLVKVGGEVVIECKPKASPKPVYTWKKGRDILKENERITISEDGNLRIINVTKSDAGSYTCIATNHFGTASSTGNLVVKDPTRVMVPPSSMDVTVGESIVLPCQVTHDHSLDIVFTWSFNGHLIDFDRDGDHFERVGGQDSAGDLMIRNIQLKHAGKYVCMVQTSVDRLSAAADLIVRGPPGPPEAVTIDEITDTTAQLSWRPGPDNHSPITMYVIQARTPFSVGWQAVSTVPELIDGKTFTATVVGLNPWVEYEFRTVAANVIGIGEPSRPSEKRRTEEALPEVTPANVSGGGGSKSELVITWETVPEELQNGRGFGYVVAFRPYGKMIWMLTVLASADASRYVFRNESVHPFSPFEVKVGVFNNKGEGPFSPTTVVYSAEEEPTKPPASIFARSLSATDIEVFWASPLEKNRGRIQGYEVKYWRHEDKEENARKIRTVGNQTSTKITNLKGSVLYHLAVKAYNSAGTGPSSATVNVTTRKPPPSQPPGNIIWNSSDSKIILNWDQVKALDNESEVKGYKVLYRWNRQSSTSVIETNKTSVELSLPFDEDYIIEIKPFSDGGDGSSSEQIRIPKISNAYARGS

T2: mouse CNTN4-rabbit Fc (mouse; rabbit, UniProt Q69Z26 19-1000, limits assumed)
T2 construct: not shown: rabbit Fc
T2 sequence (looked up): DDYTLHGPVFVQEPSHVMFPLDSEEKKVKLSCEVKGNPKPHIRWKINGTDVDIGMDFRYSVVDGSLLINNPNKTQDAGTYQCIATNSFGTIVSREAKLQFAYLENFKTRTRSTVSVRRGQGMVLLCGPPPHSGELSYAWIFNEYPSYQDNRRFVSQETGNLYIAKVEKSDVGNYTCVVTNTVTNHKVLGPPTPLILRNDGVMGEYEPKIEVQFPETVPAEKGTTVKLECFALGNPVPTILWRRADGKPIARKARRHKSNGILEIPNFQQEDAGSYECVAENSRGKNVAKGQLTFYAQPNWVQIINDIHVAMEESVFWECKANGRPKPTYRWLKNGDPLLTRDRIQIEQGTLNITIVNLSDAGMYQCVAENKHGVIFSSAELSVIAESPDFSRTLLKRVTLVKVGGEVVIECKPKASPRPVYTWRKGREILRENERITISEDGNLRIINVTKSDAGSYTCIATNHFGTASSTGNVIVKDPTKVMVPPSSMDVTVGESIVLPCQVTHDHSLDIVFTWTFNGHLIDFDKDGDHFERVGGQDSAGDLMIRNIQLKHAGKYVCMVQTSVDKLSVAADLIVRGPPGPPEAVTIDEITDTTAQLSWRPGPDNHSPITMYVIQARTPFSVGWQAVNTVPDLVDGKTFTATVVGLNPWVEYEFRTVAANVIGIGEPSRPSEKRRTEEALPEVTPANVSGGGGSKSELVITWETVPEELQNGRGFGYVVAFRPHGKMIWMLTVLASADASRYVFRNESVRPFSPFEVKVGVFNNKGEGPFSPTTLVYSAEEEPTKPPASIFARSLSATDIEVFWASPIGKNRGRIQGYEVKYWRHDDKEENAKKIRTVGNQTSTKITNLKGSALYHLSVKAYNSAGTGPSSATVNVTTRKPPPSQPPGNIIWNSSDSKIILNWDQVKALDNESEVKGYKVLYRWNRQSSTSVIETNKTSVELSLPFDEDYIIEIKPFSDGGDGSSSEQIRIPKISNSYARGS

T3: human CNTN4 antigen expressed on the cell membrane of 293FT cells (human, UniProt Q8IWV2 19-1000)
T3 construct: whole, on cells; also called Human CNTN4 transfected cell
T3 sequence (looked up): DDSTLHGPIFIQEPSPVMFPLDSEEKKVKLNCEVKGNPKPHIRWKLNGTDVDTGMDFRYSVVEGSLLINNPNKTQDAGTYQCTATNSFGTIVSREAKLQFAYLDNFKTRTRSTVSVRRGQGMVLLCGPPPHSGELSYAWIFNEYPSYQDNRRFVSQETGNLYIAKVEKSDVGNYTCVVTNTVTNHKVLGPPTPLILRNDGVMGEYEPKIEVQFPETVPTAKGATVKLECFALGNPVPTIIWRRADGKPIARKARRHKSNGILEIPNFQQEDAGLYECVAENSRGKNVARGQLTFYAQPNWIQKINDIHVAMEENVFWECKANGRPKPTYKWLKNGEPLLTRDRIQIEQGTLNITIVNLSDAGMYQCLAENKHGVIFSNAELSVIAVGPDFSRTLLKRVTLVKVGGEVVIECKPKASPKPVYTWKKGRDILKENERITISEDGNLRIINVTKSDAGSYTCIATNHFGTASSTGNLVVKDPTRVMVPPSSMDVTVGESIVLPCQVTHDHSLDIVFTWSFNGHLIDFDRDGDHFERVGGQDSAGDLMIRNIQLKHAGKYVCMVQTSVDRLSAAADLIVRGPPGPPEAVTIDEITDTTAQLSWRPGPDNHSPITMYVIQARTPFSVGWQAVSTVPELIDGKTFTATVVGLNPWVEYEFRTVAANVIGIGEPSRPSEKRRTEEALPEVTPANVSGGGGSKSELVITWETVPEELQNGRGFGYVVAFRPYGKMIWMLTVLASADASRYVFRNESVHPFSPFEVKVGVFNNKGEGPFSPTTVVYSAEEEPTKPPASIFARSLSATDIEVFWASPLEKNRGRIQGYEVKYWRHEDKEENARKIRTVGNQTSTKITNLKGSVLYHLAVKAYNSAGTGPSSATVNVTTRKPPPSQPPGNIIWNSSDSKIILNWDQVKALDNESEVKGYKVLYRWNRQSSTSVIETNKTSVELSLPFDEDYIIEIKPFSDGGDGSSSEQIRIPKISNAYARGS


Assays:
human CNTN4-rabbit Fc = target: T1, human CNTN4-rabbit Fc; assay: ELISA, plate coated with antigen-rabbit Fc, anti-human IgG Fc-HRP
Protocol: (§1) An ELISA tests were performed on a total of 25 scFv-hCks and a total of 27 IgGs for which the expression was confirmed in Example 1.2. An ELISA plate was coated with 200 ng of antigens (human CNTN4-rabbit Fc or mouse CNTN4-rabbit Fc). 200 ng of a negative control (human antigen-rabbit Fc) for a tagging protein was used. For antibody binding, anti-CNTN4 scFv-hCk was serially diluted from a maximum of 1 μM to 0.001 nM by 1/10×each, and anti-CNTN4 IgG was serially diluted from a maximum of 10 nM to 0.00001 nM by 1/10×each, thereby binding to the antigen. Anti-human kappa-HRP or anti-human IgG Fc-HRP was used as the secondary antibody for antibody detection. Color was developed using ABTS, which is a color developing reagent, and the absorbance at 405 nm was measured.

mouse CNTN4-rabbit Fc = target: T2, mouse CNTN4-rabbit Fc; assay: as above
Protocol: as §1

[1] = target: T3, human CNTN4 antigen expressed on the …; assay: FACS, 293FT cells transfected with human CNTN4, 40 ug/mL, anti-hFc-PE

Row | Binder | EC50 (human CNTN4-rabbit Fc) [nM] | EC50 (mouse CNTN4-rabbit Fc) [nM] | Shift % [1] [%]
1 | anti-CNTN4 IgG A13SF74 (antibody, V domains shown, human IgG4 (S228P)) VH: AVTLDESGGGLQTPGGALSLVCKASGFTLSSYAMQWVRQAPGKGLEWVAGISKGGGSTAYGAAVKGRATISRDNGQSTVRLQLNNLRAEDTATYFCAKTTDSNCCSSDSIDAWGHGTEVIVSS VL: ALTQPSSVSANPGETVKITCSGNSSGCSWYGWFQQKSPGSALVTVIYDNTNRPSNIPSRFSGSRSGSTATLTITGVQAEDEAIYFCGIADSSGAGIFGAGTTLTVL | 0.11 | 0.12 | 84.1
2 | anti-CNTN4 IgG A13SF19 (antibody, V domains shown, human IgG4 (S228P)) VH: AVTLDESGGGLHTPGGALSLVCKASGFTFSSYGMAWVRQASGKGLEWVAGITSSGSSAGYGPAVKGRATISRDNGQSTVRLQLNNLRAEDTATYYCAKDGYIYSGADSDSIDAWGHGTEVIVSS VL: ALTQPSSVSANLGGTVEITCSGSSSGNYGWYQQKSPGSAPVTVIYYNDERPSDIPSRFSGSKSGSTGTLTITGVQAEDEAVYYCGGYEGSTYVGIFGAGTTLTVL | 0.01 | 0.01 | 79.6
3 | anti-CNTN4 IgG A35SF39 (antibody, V domains shown, human IgG4 (S228P)) VH: AVTLDESGGGLHTPGGALSLVCKASGFTFSSYGMAWVRQAPGKGLEWVAGITSSGSSAGYGPAVKGRATISRDNGQSTVRLQLNNLRAEDTATYYCAKDGYIYSGADSDSIDAWGHGTEVIVSS VL: ALTQPSSVSANLGGTVKITCSGGSGSYGWYQQKSPGSAPVTVIYNNNNRPSDIPSRFSGSTSGSTGTLTITGVRAEDEAVYFCGGYDTDSPIFGAGTTLTVL | 0.01 | 0.01 | 80
4 | anti-CNTN4 IgG A13SF20 (antibody, V domains shown, human IgG4 (S228P)) VH: AVTLDESGGGLHTPGGALSLVCKASGFTFSSYGMAWVRQAPGKGLEWVAGITSSGSSAGYGPAVKGRATISRDNGQSTVRLQLNNLRAEDTATYYCAKDGYIYSGADSDSIDAWGHGTEVIVSS VL: ALTQPSSVSANLGGTVEITCSGGSGSYGWYQQKAPGSAPVTLIYNSDKRPSDIPSRFSGSKSGSTGTLTITGVQAEDEAVYFCGGYDSSAIFGAGTTLTVL | 0.01 | 0.01 | 82.2
5 | anti-CNTN4 IgG A35SF5 (antibody, V domains shown, human IgG4 (S228P)) VH: AVTLDESGGGLHTPGGALSLVCKASGFTFSSYGMAWVRQAPGKGLEWVAGITSSGSSAGYGPAVKGRATISRDNGQSTVRLQLNNLRAEDTATYYCAKDGYIYSGADSDSIDAWGHGTEVIVSS VL: ALTQPSSVSANPGETVEITCSGSSGSNYGWYQQKSPGSAPVTLIYYNDNRPSDIPSRFSGSKSGSTGTLTITGVQVEDEAVYYCGAWESSSNPDIFGAGTTLTVL | 0.01 | 0.01 | 82.6
6 | anti-CNTN4 IgG A35WB1 (antibody, V domains shown, human IgG4 (S228P)) VH: AVTLDESGGGLHTPGGALSLVCKASGFTFSSYGMAWVRQAPGKGLEWVAGITSSGSSAGYGPAVKGRATISRDNGQSTVRLQLNNLRAEDTATYYCAKDGYIYSGADSDSIDAWGHGTEVIVSS VL: ALTQPSSVSANPGETVKITCSGGSGSYGWYQQKSPGSAPVTVIYNNDQRPSNIPSRFSGSKSGSTATLTITGVQVEDEAVYFCGGWDSNSGAIFGAGTTLTVL | 0.02 | 0.01 | 83.9
7 | anti-CNTN4 IgG A35SF37 (antibody, V domains shown, human IgG4 (S228P)) VH: AVTLDESGGGLHTPGGALSLVCKASGFTFSSYGMAWVRQAPGKGLEWVAGITSSGSSAGYGPAVKGRATISRDNGQSTVRLQLNNLRAEDTATYYCAKDGYIYSGADSDSIDAWGHGTEVIVSS VL: ALTQPSSVSANLGGTVKITCSGGSNNYGWYQQKSPGSAPVTVIYYNNKRPSDIPSRFSGSKSGSTATLTITGVQAEDEAVYFCGGYDSSSNSDVYGAGTTLTVL | 0.01 | 0.01 | 86.6
8 | anti-CNTN4 IgG A35SF13 (antibody, V domains shown, human IgG4 (S228P)) VH: AVTLDESGGGLHTPGGALSLVCKASGFTFSSYGMAWVRQAPGKGLEWVAGITSSGSSAGYGPAVKGRATISRDNGQSTVRLQLNNLRAEDTATYYCAKDGYIYSGADSDSIDAWGHGTEVIVSS VL: ALTQPSSVSANPGETVKITCSGGGGSYGWYQQKSPGSALVTVIYNNDNRPSNIPSRLSGSKSGSTATLTITGVRAEDEAVYFCGSADNNGYIAIFGAGTTLTVL | 0.01 | 0.02 | 82.1
9 | anti-CNTN4 IgG A35SF75 (antibody, V domains shown, human IgG4 (S228P)) VH: AVTLDESGGGLHTPGGALSLVCKASGFTFSSYGMAWVRQAPGKGLEWVAGITSSGSSAGYGPAVKGRATISRDNGQSTVRLQLNNLRAEDTATYYCAKDGYIYSGADSDSIDAWGHGTEVIVSS VL: ALTQPSSVSANPGVTVKITCSGGGGSYGWYQQKAPGSAPVTLIYNNTNRPSDIPSRFSGSRSGSTNTLTITGVQAEDEAVYFCGGYDSNTDYVGFGAGTTLTVL | 0.21 | 0.2 | 84.8
10 | anti-CNTN4 IgG A35WB27 (antibody, V domains shown, human IgG4 (S228P)) VH: AVTLDESGGGLHTPGGALSLVCKASGFTFSSYGMAWVRQAPGKGLEWVAGITSSGSSAGYGPAVKGRATISRDNGQSTVRLQLNNLRAEDTATYYCAKDGYIYSGADSDSIDAWGHGTEVIVSS VL: ALTQPSSVSANLGETVKITCSGGYSGYGWYQQKSPGSAPVTVIYYNDKRPSDIPSRFSGSKSGSTGTLTITGVRAEDEAVYFCGSADSSTGYVAIFGAGTTLTVL | 0.01 | 0.01 | 88.2
11 | anti-CNTN4 IgG A35SF3 (antibody, V domains shown, human IgG4 (S228P)) VH: AVTLDESGGGLQTPGGGLSLVCKASGFTFSSYGMAWVRQAPGKGLEWVAGITSSGSSAGYGPAVKGRATISRDNGQSTVRLQLNNLRAEDTATYYCAKDGYIYSGADSDSIDAWGHGTEVIVSS VL: ALTQPSSVSANLGGTVEITCSGSSGSYGWYQQKAPGSAPVTVIYDNTNRPSDIPSRFSGSKSGSTGTLTITGVQAEDEAVYFCGGYDSSTIFGAGTTLTVL | 0.01 | 0.01 | 81.9
